Data taken from the nanobody polyreactivity screen of Harvey et al. (2022).

Experiment: yeast display, Sf9 membrane polyspecificity reagent, FACS + sequencing; frameworks hold sequencing errors
How it was run: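 After 36–48 hours of galactose induction, yeast (Saccharomyces cerevisiae BJ5465) displaying a synthetic nanobody library were stained at 4 °C for 1 hour with 10% biotinylated, detergent-solubilized Sf9 membrane reagent. Streptavidin microbeads enriched the stained cells before FACS sorting into low and high (top ~1%) gates on anti-HA and streptavidin fluorescence. Each clone's polyreactivity label reflects its gate of origin.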

Sequence	polyreactivity (PSR sort gate)
QVQLVESGGGLVQAGGSLRLSCAASGRILYQYAMGWYRQAPGKVRELVASISGRSGRTRYADSVKGRFTISRDIAKNTVSLQMNSLKPEDTAVYYCYAGTSVLKYDYWGQGTQVTVSS	low polyreactivity
QVQLVESGGGLVQAGGSLRLSCAASGRIFPYYAMGWYRQAPGKEREFVAAITRRGTSTYYADSVKGRFTISRDNAKNTVYLQMNSLKPEDTAVYYCNKDIISLSRSYGYWGQGTQVTVSS	high polyreactivity
QVQLVESGGGLVQAGGSLRLSCAASGSIFVGYAMGWYRLAPGKERELVASITNGDSTNYADSVKGRFTISRDNAKNTVYLQMNSLKPEDTAVYYCAADYYSFHPSGWYGYEYWGQGTQVTVSS	low polyreactivity
QVQLVESGGGLVQAGGSLRLSCAASGYTFYRYAMGWYRQAPGKERELVAGIDRSGTRTYYADSVKGRFTISRDNAKNTVYLQMNSLKPEDTAVYYCNAVAYYVSKYDYWGQGTQVTVSS	high polyreactivity
QVQLVESGGGLVQAGGSLRLSCAASGSTYQNAMGWYRQAPGKEREFVAAISWSGGSTYYADSVKGRFTISRDNAKNTVYLQMNSLKPEDTAVYYCAAYSYFSPWYDYWGQGTQVTVSS	high polyreactivity
QVQLVESGGGLVQAGGSLRLSCAASGSTFRGYAMGWNRPAPGKETELVAGITKRGGSTYYADSVKGRFTISRDNAKNTVYLQMNSLKPEDTAVYYCAAGKHRQAYEHDYWGQGTQVTVSS	high polyreactivity
QVQLVESAGGLVQAGGSLRLSCAPSGSTFNYYAMGWYRQAPGKESELGAAIDWSGGSTYYADSVKGRFTISRDNAKNTVYLQMNSLKPDDTAVYYCAARTYDYSYGSFDYWGQGTQVTVSS	low polyreactivity
QDQLVETGGGLVQAGGCLRLSCAASGRNFFGYAMGWYRQAPGTERELLAAITQSGGRTYYADSVKGRFTISRDNAKNTVYLLMNSQKPEDTAVYYCAATWLGTRNLVHITLYYWGQGTQVTVSS	low polyreactivity
QVQLVDSGGGLVQAGGSLRLSCAASGSTLGENAMGWYRQAPGKERELVSAIRQSSGRTYYADSVKGRFTISRDNAKNTVYLQMNSLKPEDTAVYYCANYYWGQGTQVTVST	low polyreactivity
QVQLVESGGGLVQAGGSLRLSCAASGSTFPVYAMGWYIQAPGKERELVAAISYSGTRTYYADSVKGRFTISRDNAKNTVYLQMNSLKPEDTAVYYCAADFEGYGQGYGYWGQGTQVTVSS	low polyreactivity
QVQLVESGGGLVQAGGSLRLSCAASGSTFVNYAMGWYRQAPGKERELVAAISSTGGSTYYADSVKGRFTISRDNAKNTVYLQMNSLKPEDTAVYYCAAYRYFKMGYWGQGTQVTVSS	high polyreactivity
QVQLVETGVGLVQAGGSLRLSCAASGLTFPNYDMGWYRQAPGKEMELVAAISSSGGSTYYADSVKGRFTISRDNAKNTVYLQMNSLKPEDTAVYYCATEWSYYNYGYDYWGQGTQVTVSS	low polyreactivity
QVQLQESGGGLVQAGGSLRLSCAASCTISQEDWMGWYRQAPGKEREFVAAIGLGSNTNYADSLKGRFTISRDNAKNTVYLQMNSLKPEDTAVYYCAVTVWQYSDHVYRGQGTQVTVSS	low polyreactivity
QVQLVESGGGLVQEGGILPLSCAASGFIFGDYVMGWYRQAPGKERELVAAINRNGGRTYYADSVKGRFTISRDYAKNTVYLQMNSLKPEDTAVFYCAAVFRSDRYHWYYYWGQGTQVTVSS	high polyreactivity
QVQLVESGGGLVQAGGSLRLSCPASGIIFSTYAMGWYRQAPGKERELVATITSSGSNTYYADSVKGRFTISRDNAKNTVYLQMNSLKPEDTAVYYCATYSFFWWQYDYWGQGSQVTVSS	high polyreactivity
QVQLVESGGGLVQAGGSLRLSCAASGRNFRANAMGWSRQEPGKERELVASITYSGGSTYYADSVKGRFTISRDNAKNTVYVQMNSLKPEDTAVYYCARAGISSGGYYYWGQGTQVTVSS	low polyreactivity
QVQLVESGGGLVQAGGSLRLSCAASGRTSGGYAMGWYRQAPGKERELVATITQSGGRTYYADSVKGRFTISRDNAKNTVYLQMNSLKPEDTAVYYCAAQYGRTYYSRREYWGQGTQVTVSS	high polyreactivity
QLQLVESGGGLVQAGGSLRLSCAASGRTFRSYTMGRYRQAPGKERELVASITRSGVSTYYADSVKGRFTISRDNAKNTVYLQMNSLKPEDTAVYYCAAYSVFRSYDYWGQGTQVTVSS	high polyreactivity
QVQLVESGGGLVQAGGSLRLSCAASGSTFITYAMGWYRQAPGKERELVAAISWSGVGTYYADSVKGRFTISRDNAKNTVYLQMNSLKPEDTAVYYCAVDRIYYYTYGVYYWGQGTQVTVSS	high polyreactivity
QVQLVESGGGLVQAGGSLRLSCAASGSTFYRYAMGGYRQAPGKERELVASITRGGGRTHYADSVKGRFTISRDNAKNTVYLQMNSLKPEDTAVYYCAAVTPVSYRLYGYWGQGTQVTVSS	high polyreactivity
QVQLVESGGGLVQAGGSLRLSCAASGNTLQYYAMGWYRQAPGKERELVAAITTGGSTNYADSVKARFTISRDNAKNTGYLQMNSLKPEDTAVYYCAARGGVSKRISDYWGQGTQVTVSS	low polyreactivity
QVQLVESGGGLVQAGGSLRLSCAACGFIFYKNAMGWYRQAPGKERELFAAISGGGGSTSYADSVKGRFTISRDNAKNTVYLQMNSLKPEDTAVYYCATYSFRRTGWRYDYWGQGTQVTVSS	high polyreactivity

Sequence	polyreactivity (PSR sort gate)
QVQLVESGGGLVQAGGSLRLSCAASGYTFSLNAMGWYRQAPGKERELVAAISGRTGRTYYADSVKGRFTISRDNAKNTVYLQMNSLKPEDTAVYYGNKVYPYQRRTRFDYWGQGTQVTVSS	high polyreactivity
QVQLVESGGGLVQAGCSLRLSCAASGSIFALYDMGWYRQAPGKERELVAAISYRGGRTYYADSVKGRFTISRDNAKNTVYLQMNSLKPEDTAVYYCATDFPGNFDYWGQGTQVTVSS	low polyreactivity
QVQLVESGGGLVQAGGSLRLSCAASGRIFSRNAMGWYRQAPGKERELVAAITRRGGSTYYADSVKGRFTISRDNAKNTVYLQMNSLKPEDTAVYYCATVTYSGSVDYDYWGQGTQVTVSS	high polyreactivity
QVQLVESGGGLVQAGGSLRLSCAASGRTFAWYTMGWYRKAPGKERELVAAISGSGGSTYYADSVKGRFTISRDNAKNTVYLQMNSLKPEDSAVYYCARRVDSYYGHTRYYYWGQGTQITVSS	high polyreactivity
QVQLVESGGGLVQAGGSLRLSCAASGFIFWENGMGWYRQAPGKERELVAAISSGVGRTYYADSVKGRFTISRDNAKNTVYLQMNSLKPEDTAVYYCNRARYYREFDYWGQGTQVTVSS	high polyreactivity
QVQLVESWGGLVQAGGSLRLSCAASGITLGYYSMGWYRQAPGKERELVAGISSSGDSTYYADSVKGRFTISRDNAKNSVYLQIKSLKPEDTAVYYCIADGWYFEYWGQGTQVTVSS	low polyreactivity
QVQLVESGGGLVQAGGSLRLSCAASGRISGFYTMGWYRQAPGKERELVATITRSGSRTYYADSVKGRFTISRDNAKNTVYLQMNSLKPEDTAVYYCARSQAVYDGWFAKFGYWGQGTQVTVSS	low polyreactivity
QVQLVESGGGIVQAGGRLRLSCAASGITFRFYAMGWYRQAPGKERELVAVISRGGGTTYYADSVKGRFTISRDNEKNTVYLEMNSLKPEDTEVFYCNAVFAWYRSDEYDYWGQGTLVTVSS	high polyreactivity
QVQLVESGGRLVQSGGSLRLSCAASGNTFIPNAMGWYRQAPGKERELVAAIRASGGSTYYADSVKGRFTISRDNAKNTVYLQMNSLKPEDTAVYYCNADIWYKTYDYWGQGTQVTVSS	low polyreactivity
QVQLGESGGGLVQAGGSLRLSCAASGRTFGLYAMGWYRQAPGKERELVAAISWGGGRTYYADSVKGRFTISRDNAKNTVYLQMNSLKPEDTAVYYCNAVYSPRYYVGGYDYWGQVTQVTVSS	high polyreactivity
QVQLQERGGGLVQAGGSLRLSCAASGIIYADGFMGLYRQAPGKEREFVATITGGGTSNYADSVKGRFTISRDNAKNTVYLQMNSLKPEDTAVYYCAVYFAWTIGFTYLGQGTQVTVSS	high polyreactivity
QVQLVESGGGLVQAGGSLRLSCAASGMTFAENAMGWYREAPGKERELVAANSASGGSTYYADSVKGRFTISRDNAKNTVYLQMNSLKPEDTAVFYCATRVAFLWPRRDYDYWGQGTQVTVSS	low polyreactivity
QVQLVESGGGLVQAGGSLRLSCAASGLIFVFNTLGWYRQAPGKEMELVAVITSGGSTNYADSVKGRFTISSDNEKNTVYLQMISLKPEDTAVYYCNVDRQVITGRYIGDYWGEGTQVTVSS	low polyreactivity
QDQLVESGGGLVQAGGSLRLSCASSGYIFYYNAMGWYRQAPGKEWELVAAITGDSGTYYADSVKGRFTISRDNAKNTFYFQMNCLKPEDTAVYYCNAYTFYQYYRWYVYWGQVTQVTVSS	low polyreactivity
QVQLVESGGGLVQAGGSLRLSCAASGSTCVNNDMGLYRQAPGKEGELVAGITTSGGSTYYADSVKGRFTISRDKAKNTVYLQMNSLKPEDTAVYYCAARAFSAWLEMDYWGQCTQVTVSS	low polyreactivity
QVQLVESGGGLVQSGGSLRLSCVASGRTFRWYPMGWYRQEPGKERELVATITLNGGSTYYADSVKGRFTISRDNEKNTVYLQMNSLKPEDTAVYYCNRGTNVVRRGVYSFGYDYWGHGTQVTVSS	low polyreactivity
QVQLVESGGGLVQAGGSLRLSCAASGFTFGRYAMGWYRQAPGKERELVAAISSSGSSTYYADSVKGRFTLSRDNAKNTVYLQMNSLKPEDTAVYYCNTRCRKHPSSYPYDYWGQGTQVTVSS	high polyreactivity
QVQLVESGGGLVQAGGSLRLSCAASGSILAIYAMGWYRQAPGKERELVAAITWSGDSTYYADSVKGRFTISRDNAKNTVYLQMNSLKPEDTAVYYCAAGPGYWYEHEYWGQGTQVTVSS	low polyreactivity
QVQLVESGGGLVQAGGSLRLSCAASGRIFYLKVMGWYRQEPGKERELVAAITRRDVTTYADSVKGRFTISRDNAKNTVYLQMNSLKPEDTAVYYCNADSPSLSGDYWGQGTQVTVSS	low polyreactivity
QLQLVESGGGLVQAGGSLRFSCAASGYISRRYAMVWSIQAPGKERELVAAITGGGGSTYYADSVKGRFTISRDNAKNTVYLQMNSLKPEFTAVYYCNAYWGRSGYAGGYWGQGTQVTVSS	high polyreactivity
QVQLVESGGGLVQAGGSLRLSCAASGSTFVYYAMGWYRQAPGKERELVADISWSGGDTYYADSVKGRFTISRDNAKNTVYFQMNSLKPEDTAVYYCAAEWSTPSYVGFADGFEYWGQGTQVTVSS	low polyreactivity
